Drawing on patent US20170051047A1, this text covers Kd, koff and kon for one molecule.

The term Kd denotes a measure of binding affinity in units of concentration. The koff is the rate constant with which the complex falls apart. A word on the kon: it is the rate constant with which the complex forms. A higher kon goes with faster complex formation.

The target of assay [1] is T1, Clostridium difficile toxin A (whole toxin A) (Clostridium difficile), P16154. The following applies: remark: other sources report otherwise.
Assay [2] has as its target T1, Clostridium difficile toxin A (whole …). The following applies: remark: other sources report otherwise. This is another data set of the same source.

Where two headings read alike, the source gives them in different places.

B1: CAN20G2 (antibody, V domains shown)
VH: QIQLVQSGPEVKKPGETVKISCKASGYTFTNQGMNWVKQAPGKGLKWMGWINTNTGEPTYTEEFKGRFAFSLETSASTAYLQINNLKNEDTATYFCYVNYDYYTMDFWGQGTSVTVSS
VL: QVVLTQSPAIMSASLGDRVTMTCTASSSVISTYLHWYQQKPGSSPKLWIYSTSTLASGVPPRFSGSGSGTSYSLTISSMEAEDAATYYCLQYHRSPRTFGGGTKLEIK
In assay [1], B1 showed a dissociation constant Kd of 0.166 nM, a koff of 1.8e-05 s⁻¹ and a kon of 108000 M⁻¹ s⁻¹. Moreover, in assay [2], the Kd was 4.19 pM, the koff was determined as 4.35e-07 s⁻¹ and the kon is 104000 M⁻¹ s⁻¹.
